# According to patent US8343490B2, “Monoclonal antibody SC104 and derivative thereof specifically binding to a sialyltetraosyl carbohydrate as a potential anti-tumor therapeutic agent” (Cephalon Australia Pty Ltd, priority 2004, dated 2013):
# Values joined by “and” are separate entries in the source; they are usually repeats but may differ in a detail not shown here. Equal values may be shown once.
# B1: SC104: mouse IgG1 monoclonal antibody specific for a sialyltetraosyl carbohydrate, raised by immunisation with colorectal cancer cell lines (antibody, V domains shown)
# VH: DVQLQESGPDLVKPSQSLSLTCTVTGYSITSGYSWHWVRQFPGNKMEWMGHIHFSGRPTYNPSLSSRISITRDTSKNQFLLQLKFVTTEDTSTYFCARKGKGSDDGLNYWGQGISVTVSS
# VL: ENVLTQSPVIMSASPGEKVTMTCSASSSLSYIHWYQQKSRTSPKLWIYDTSNLASGVPGRFSGSGSGNSYSLTISSMEAEDVATYYCFQGSEYPLTFGGGTKLEMT
# How the values were obtained:
# [1] = test system: colorectal tumour extranuclear membranes; assay: ELISA on extranuclear membranes of colorectal tumour; format: binding; details: one line per patient (1-7)
# Method: • Tumour and normal membrane extract binding. Extranuclear extractions of colorectal and normal colonic membranes were produced and binding of SC104 was assayed by ELISA. Results
# [2] = HPTLC immunostaining of C170 lipid extract fractions; format: binding
# Method: • Lipid extraction from C170 tumour cells. A pellet of C170 cells (1 ml packed cell volume) was obtained by trypsinisation of a static adherent tissue culture. The pellet was washed in PBS and the excess buffer removed by aspiration following centrifugation, then stored at −80° C. The pellet was extracted with chloroform:methanol (3:1, v/v, 19 ml). The resultant emulsion was centrifuged at 8,000 rpm in a 50 ml solvent resistant (Tefzel) centrifuge tube for 15 min at 4° C. The supernatant was dried down using a rotary evaporator at 30° C. and resuspended in a small volume (˜1 ml) chloroform:methanol:0.5% CaCl2(aq) (50:40:10). • HPTLC analysis of lipid extracts The sample was multiply spotted onto a Merck HPTLC plate and developed in chloroform:methanol:0.5% CaCl2(aq) (50:40:10) as standard. The plates were dried and then placed in an iodine vapour tank. Bands were marked in pencil and the iodine allowed to evaporate off the plate over night. The plates were then immunostained in order to localise the antigen. • Immunostaining of developed HPTLC plates. For SC104 immunostaining, the plates were immersed in polyisobutyl methylmethacrylate (0.1% w/v solution) hexane:chloroform (9:1) for 15 seconds then allowed to dry. The plates were then blocked in 3% BSA in PBS for 1 hr at room temperature, followed by incubation in either test antibody solution (10 μg/ml) or BSA solution, for 1 hr at room temperature. The plates were then washed three times in PBS/Tween-20 (0.1%), before being incubated in rabbit anti-mouse HRP conjugate from Dako (1/250 in PBS) for 1 hr at room temperature. The plates were then washed three times in PBS/Tween −20(0.1%) and once in 10 mM Tris, 100 mM NaCl pH 7.0, 0.1% Tween and developed in Sigma-FAST […] reagent. • Chemical staining of developed HPTLC plates. Orcinol staining was employed to detect the presence of carbohydrate moieties. Developed HPTLC plates were allowed to dry before spraying with orcinol reagent until fully coated. The plates were dried in a stream of hot air and incubated at 100° C. for 15 minutes. Ninhydrin staining was used to detect molecules containing free amino groups. Developed HPTLC plate were first allowed to dry and then dipped in ninhydrin solution (0.25% ninhydrin w/v in acetone) until fully wetted. The plate was then allowed to develop at room temperature for several hours. Results
# • Silica column fractionation of lipid extract. A gravity column (150 mm i.d.) was packed with a silica slurry in chloroform:methanol:0.5% CaCl2(aq) (50:40:10). The C170 extract, re-dissolved in ˜1 ml chloroform:methanol:0.5% CaCl2(aq) (50:40:10) was loaded onto the column and eluted using the same solvent conditions. Fractions were collected and analysed by HPTLC. […]
# [3] = Blood group antigen ELISA, H type I; format: binding
# Method: The Lewis ^y hapten and the type I and type II H blood group antigen (Sigma, Poole, Dorset) were dried microtitre plates by overnight incubation at 37° C. Binding of SC104 mab was assayed by ELISA as described above.
# [4] = test system: range of tumour cell lines; assay: Binding to tumour cell lines by ELISA; details: SC104 1 μg/ml; FIG. 2a
# Method: C170, Colo205, MKN45, R1D9, and 791T cells (10^5) were resuspended in 50 μl of SC104 mab (0-20 μg/ml) and incubated on ice for 20 min. After washing the samples 3 times in RPMI/10% FCS cells were incubated with FITC labelled rabbit anti-mouse (1/50: Dako Ltd, Bucks, UK) antibody and incubated on ice for 30 minutes prior to analysis on a FACScan (Becton Dickinson, Sunnyvale, Calif.). Results are expressed as mean linear fluorescence (MLF). • Binding to tumour cells by ELISA. 96-well tissue culture plates were coated with cells at a cell density of 5×10^5 cells/ml (100 μl/well) in 10% foetal bovine serum in RPMI 1640. The plates were incubated overnight at 37° C., 5% CO2, 95% air. The cells were then washed twice in phosphate buffered saline (pH7.3, PBS) prior to being fixed with 0.5% glutaraldehyde in PBS (10 min, 25° C., 100 μl/well). Remaining non-specific binding sites were blocked by incubation for 1 hr with 1% bovine serum albumin (fraction V from Sigma Chemicals Ltd.) in PBS. The cells were washed three times with a washing solution consisting of 0.05% Tween 20 in phosphate buffered saline. Cells were incubated with SC104 (1 μg/ml) for 1 hr at room temperature and then bound antibody detected with goat anti-mouse horse radish peroxidase and ABTS. Results are expressed as absorbance at 405 nm. Results
# normal colon = assay: Immunohistochemistry of normal colon (screening); format: binding; parameters: key: −: negative; +: minimal; 2+: strong; 3+: very strong
molecule,measurement,setting,value
B1,Binding of SC104 mab to extranuclear membranes: Colorectal Tumour,[1],0.221 and 0.278 and 0.196 and 0.281 and 0.102 and 0.001 and 0.437
same,binding after chemical removal of sialic acids (acid hydrolysis),"[2]; 0.05 M sulphuric acid, 80° C., 2 hrs",complete loss of SC104 binding
same,binding to asialo form,[2]; HPTLC immunostaining,does not bind to an asialo form
same,binding to sialylated glycolipid forms,"[2]; HPTLC immunostaining, silica column fractions","bind to a mono, di and even polysialylated glycolipid"
same,binding after ceramide glycanase removal of oligosaccharides,"[2]; aqueous and organic phase, FIG. 8",loss of SC104 binding in both fractions
same,Binding to blood group antigens by ELISA: H blood group Type I,[3],0.087 OD 405 nm
same,binding to range of tumour cell lines by ELISA,[4],predominantly bound to cell lines of the gastrointestinal origin
same,Immunohistochemistry Normal colon,normal colon,+
